Measurements taken from publication doi:10.1101/2022.09.01.506260.

Columns and labels:
[1] = molecular target: full length recombinant PEAK3 (PEAK3^FL) from insect cells (human) (UniProt Q6ZS72); assay: SEC-MALS
[2] = molecular target: PEAK2^IDR1 (N-terminally truncated PEAK2, residues 802-1406) (human) (UniProt Q86YV5); assay: SEC-MALS
[3] = molecular target: PEAK3^tandem-pS69 phosphopeptide (residues 54-74) (human); assay: ITC
[4] = molecular target: PEAK3^tandem-pS69 peptide pre-complexed with 14-3-3ɣ (human); assay: ITC

Chain of full length recombinant PEAK3 (PEAK3^FL) from insect cells (human) (Q6ZS72 whole entry, the tested form may be a part): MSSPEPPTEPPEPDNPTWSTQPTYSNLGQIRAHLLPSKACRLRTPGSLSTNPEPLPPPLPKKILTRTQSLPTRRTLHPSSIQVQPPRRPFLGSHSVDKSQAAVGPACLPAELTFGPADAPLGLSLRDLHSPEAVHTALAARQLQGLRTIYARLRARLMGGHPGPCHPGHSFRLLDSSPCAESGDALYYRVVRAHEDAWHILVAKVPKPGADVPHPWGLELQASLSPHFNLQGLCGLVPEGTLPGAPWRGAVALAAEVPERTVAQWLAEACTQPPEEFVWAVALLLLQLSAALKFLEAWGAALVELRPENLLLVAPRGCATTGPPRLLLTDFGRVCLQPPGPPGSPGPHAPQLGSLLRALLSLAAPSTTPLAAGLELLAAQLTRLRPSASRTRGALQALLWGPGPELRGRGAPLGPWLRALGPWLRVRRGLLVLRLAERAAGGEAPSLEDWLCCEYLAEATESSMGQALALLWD
Chain of PEAK2^IDR1 (N-terminally truncated PEAK2, residues 802-1406) (human) (Q86YV5 802-1406): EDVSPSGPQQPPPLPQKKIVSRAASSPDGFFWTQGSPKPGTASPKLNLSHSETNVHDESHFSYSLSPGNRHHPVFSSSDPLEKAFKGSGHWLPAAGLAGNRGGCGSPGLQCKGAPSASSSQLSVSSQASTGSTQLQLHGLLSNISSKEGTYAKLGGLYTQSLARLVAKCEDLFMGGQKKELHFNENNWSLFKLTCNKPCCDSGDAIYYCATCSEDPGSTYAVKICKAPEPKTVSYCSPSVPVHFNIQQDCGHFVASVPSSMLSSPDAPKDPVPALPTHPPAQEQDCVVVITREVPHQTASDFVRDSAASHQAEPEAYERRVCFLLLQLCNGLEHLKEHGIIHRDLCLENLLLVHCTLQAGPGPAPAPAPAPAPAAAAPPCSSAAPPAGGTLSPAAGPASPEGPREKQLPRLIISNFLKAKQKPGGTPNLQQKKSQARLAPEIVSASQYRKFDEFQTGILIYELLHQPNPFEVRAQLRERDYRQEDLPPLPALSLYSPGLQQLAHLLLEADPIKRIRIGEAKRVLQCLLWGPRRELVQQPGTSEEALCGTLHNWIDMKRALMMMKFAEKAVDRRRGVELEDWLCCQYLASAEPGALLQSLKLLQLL
Chain of CrkII NSH3 domain (CrkII^NSH3) (P46108 134-191): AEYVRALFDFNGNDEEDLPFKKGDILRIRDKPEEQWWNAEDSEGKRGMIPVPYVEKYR

Substance “insect cell derived 14-3-3ε,ζ heterodimer (complex)” has a stoichiometry N (ratio (dimer:dimer)) [1] of 1.

For “full length CrkII, dimer (CrkII^FL dimer) (from UniProt P46108-1 1-304) (natural protein)”, the stoichiometry N [2] was 1 ratio (2:2).

human 14-3-3γ (natural protein) showed a Kd [3] of 130 nM.

Substance “CrkII NSH3 domain (CrkII^NSH3) (from UniProt P46108-1 134-191) (domain or fragment)” has a Kd [4] of 3.6 µM.
